Laboratory results published in patent US20070110747A1 (Amgen, published 2007).

B1: Antibody A (antibody, mouse IgG1, kappa, V domains shown)
VH: QSLEESGGRLVTPGTPLTLTCTASGFSLSSYWMNWVRQAPGEGLEWIGTIDSGGRTDYASWAKGRFTISRTSTTMDLKMTSLTTGDTARYFCARNWNLWGQGTLVTVSS
VL: AQVLTQTPASVSAAVGGTVTINCQSSQSVYDNNWLAWFQQKPGQPPKLLIYDASDLASGVPSRFSGSGSGTQFTLTISGVQCADAATYYCQGAYNDVIYAFGGGTEVVVKR
notes: Rabbit-mouse chimeric antibody; mature chains (signal peptides cleaved off); also called Ab-A; Mab-A
B2: Antibody 19 (antibody, V domains shown)
VH: EVQLQQSGPELVKPGASVKMSCKASGFTFTDYIMHWVKQKPGQGLEWIGYINPYNDDTEYNEKFKGKATLTSDKSSSTAYMDLSSLTSEGSAVYYCARSIYYYDAPFAYWGQGTLVTVSS
VL: DIQMTQTTSSLSASLGDRVNISCRASQDISSYLNWYQQKPDGTVKLLIYSTSRLNSGVPSRFSGSGSGTDYSLTISNLAQEDIATYFCQQDIKHPTFGGGTKLELKR
notes: also called Ab-19
B3: Antibody 4 (antibody, mouse IgG1, kappa, V domains shown)
VH: EVQLQQSGPELMKPGASVKMSCKASGYTFTDYNMHWVKQNQGKTLEWIGEINPNSGGAGYNQKFKGKATLTVDKSSTTAYMELRSLTSEDSAVYYCARLGYDDIYDDWYFDVWGAGTTVTVSS
VL: DIQMTQITSSLSASLGDRVSISCRASQDISNYLNWYQQKPDGTFKLLIFYTSRLLSGVPSRFSGSGSGTDYSLTIYNLEQEDFATYFCQQGDTLPYTFGGGTKLEIKR
notes: also called Ab-4
B4: Antibody 3 (antibody, mouse IgG1, kappa)
light: EIVLTQSPALMAASPGEKVTITCSVSSTISSNHLHWFQQKSDTSPKPWIYGTSNLASGVPVRFSGSGSGTSYSLTISSMEAEDAATYYCQQWSSYPLTFGAGTKLELRRADAAPTVSIFPPSSEQLTSGGASVVCFLNNFYPKDINVKWKIDGSERQNGVLNSWTDQDSKDSTYSMSSTLTLTKDEYERHNSYTCEATHKTSTSPIVKSFNRNEC
heavy: EVQLQQSGAELVRPGALVKLSCTASDFNIKDFYLHWMRQRPEQGLDWIGRIDPENGDTLYDPKFQDKATLTTDTSSNTAYLQLSGLTSETTAVYYCSREADYFHDGTSYWYFDVWGAGTTITVSSAKTTPPSVYPLAPGSAAQTNSMVTLGCLVKGYFPEPVTVTWNSGSLSSGVHTFPAVLQSDLYTLSSSVTVPSSTWPSETVTCNVAHPASSTKVDKKIVPRDCGCKPCICTVPEVSSVFIFPPKPKDVLTITLTPKVTCVVVDISKDDPEVQFSWFVDDVEVHTAQTQPREEQFNSTFRSVSELPIMHQDWLNGKEFKCRVNSAAFPAPIEKTISKTKGRPKAPQVYTIPPPKEQMAKDKVSLTCMITDFFPEDITVEWQWNGQPAENYKNTQPIMDTDGSYFIYSKLNVQKSNWEAGNTFTCSVLHEGLHNHHTEKSLSHSPGK
notes: also called Ab-3
B5: Antibody 13 (antibody, mouse IgG1, kappa, V domains shown)
VH: EVQLQQSGPELVKPGASVKMSCKASGYTFTDYYMNWVKQSHGESLEWIGDINPYNDDTTYNHKFKGKATLTVDKSSNTAYMQLNSLTSEDSAVYYCARETAVITTNAMDYWGQGTSVTVSS
VL: QIVLTQSPAIMSASPGEKVTMTCRASSSVTSSYLNWYQQKPGSSPKLWIYSTSNLASGVPARFSGSGSGTSYSLTISSVEAEDAATYYCQQYDFFPSTFGGGTKLEIKR
notes: … = EVQ); also called Ab-13

Assays:
[1] = target: T1, human sclerostin, mature form (signal peptide removed) (human, UniProt Q9BQB4 24-213); assay: Biacore cross-blocking on immobilised human sclerostin; RU of 1:1 mixture, competitor Ab-4
T1 construct: 190 amino acid glycoprotein; also called SOST; recombinant human sclerostin
T1 sequence: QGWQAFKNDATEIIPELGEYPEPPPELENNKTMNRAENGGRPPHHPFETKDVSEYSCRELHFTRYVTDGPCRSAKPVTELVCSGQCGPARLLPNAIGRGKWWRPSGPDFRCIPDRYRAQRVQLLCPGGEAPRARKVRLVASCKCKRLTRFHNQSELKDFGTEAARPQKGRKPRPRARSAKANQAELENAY
Description: (§1) The antibodies to be tested were diluted to a concentration of 200 ug/ml in HBS-EP buffer (being 10 mM HEPES pH 7.4, 150 mM NaCl, 3 mM EDTA, 0.005% (v/v) Surfactant P20) and then mixed in a one to one molar ratio (on a binding site basis) to generate the test mixture. This test mixture thus contained each antibody at a concentration of 100 ug/ml (1.3 um on a binding site basis). Separate solutions containing each of the antibodies in the test mix alone were also prepared. These solutions contained the individual antibodies in HBS-EP buffer at a concentration of 100 ug/ml (1.3 um on a binding site basis).
(§2) 20 μL of the test mixture was passed over the sclerostin-coated chip at a flow rate of 10 μL/min and the amount of binding recorded. The chip was then treated with two 60 second pulses of 30 mM HCl to remove all of the bound antibody. A solution containing only one of the antibodies of the test mixture (at 1.3 μM in the same buffer as the test mixture on a binding site basis) was then passed over the chip in the same manner as the test mixture and the amount of binding recorded. The chip was again treated to remove all of the bound antibody and finally a solution containing the other antibody from the test mixture alone (at 1.3 μM in the same buffer as the test mixture on a binding site basis) was passed over the chip and the amount of binding recorded.
(§3) The table below show the results from cross-blocking assays on a range of different antibodies. The values in each square of the table represent the amount of binding (in RU) seen when the antibodies (at 1.3 μM on a binding site basis) or buffer indicated in the top row of the table were mixed with the antibodies (at 1.3 uM on a binding site basis) or buffer indicated in the first column of the table.

[2] = target: T1, human sclerostin, mature form (signal …); assay: Biacore cross-blocking on immobilised human sclerostin; RU of 1:1 mixture, competitor Ab-13
Description: as §1, §2, §3

[3] = target: T1, human sclerostin, mature form (signal …); assay: Biacore cross-blocking on immobilised human sclerostin; RU of 1:1 mixture, competitor Ab-3
Description: as §1, §2, §3

[4] = target: T1, human sclerostin, mature form (signal …); assay: Biacore cross-blocking on immobilised human sclerostin; RU of 1:1 mixture, competitor Ab-19
Description: as §1, §2, §3

[5] = target: T1, human sclerostin, mature form (signal …); assay: Biacore cross-blocking on immobilised human sclerostin; RU of 1:1 mixture, competitor Ab-A
Description: as §1, §2, §3

[6] = target: T2, rat sclerostin peptide KWWRPNGPDFRCIPDRYRAQRV (rat); assay: ELISA on rat sclerostin peptides coupled to sulfhydryl binding plates, antibody at 1 ug/ml
T2 construct: Coupled to the plate through its cysteine
T2 peptide: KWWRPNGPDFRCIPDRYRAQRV
Description: A series of overlapping peptides (each peptide being approximately 20-25 amino acids long) were synthesized based on the known amino acid sequence of rat sclerostin (SEQ ID NO:98). […] This enabled the peptides to be bound to the assay plates by covalent coupling, using commercially available sulfhydryl binding plates (Costar), at a concentration of […], in phosphate buffered saline (PBS: pH 6.5) containing 1 mM EDTA. Following incubation for 1 hour at room temperature, the plates were washed three times with PBS containing 0.5% Tween 20. The plates were blocked by incubation with a PBS solution containing 0.5% fish skin gelatin (Sigma) for 30 minutes at room temperature and then washed three times in PBS containing 0.5% Tween 20.
Antibodies to be tested were diluted to 1 μg/ml in PBS containing 0.5% fish skin gelatin and incubated with the peptide-coated plates for 1 hour at room temperature. Excess antibody was removed by three washes with PBS, 0.5% Tween 20. […] Finally the plates were incubated with a horseradish peroxidase chromogenic substrate (TMB-Stable Stop, RDI) for 5 minutes at room temperature, the color development was stopped with acid, and the plates' optical density measured at 450 nm.

Row | Binder | binding (RU) [1] [RU] | binding (RU) [2] [RU] | binding (RU) [3] [RU] | binding (RU) [4] [RU] | binding (RU) [5] [RU] | binding result [6]
1 | B1 | 833 | 1080 | 946 | 868 | – | –
2 | B2 | 789 | 1020 | 892 | – | 863 | binds
3 | B3 | – | 1020 | 869 | 822 | 860 | –
4 | B4 | 845 | 428 | – | 896 | 952 | –
5 | B5 | 1010 | – | 432 | 1040 | 1110 | –
